{"source": "paper PMC2171315", "about": "(The Journal of Cell Biology, 2005)", "binders": {"B1": {"name": "Bacterially expressed and purified Prp20p (natural protein)", "chain": "MVKRTVATNGDASGAHRAKKMSKTHASHIINAQEDYKHMYLSVQPLDIFCWGTGSMCELGLGPLAKNKEVKRPRLNPFLPRDEAKIISFAVGGMHTLALDEESNVWSWGCNDVGALGRDTSNAKEQLKDMDADDSSDDEDGDLNELESTPAKIPRESFPPLAEGHKVVQLAATDNMSCALFSNGEVYAWGTFRCNEGILGFYQDKIKIQKTPWKVPTFSKYNIVQLAPGKDHILFLDEEGMVFAWGNGQQNQLGRKVMERFRLKTLDPRPFGLRHVKYIASGENHCFALTKDNKLVSWGLNQFGQCGVSEDVEDGALVTKPKRLALPDNVVIRSIAAGEHHSLILSQDGDLYSCGRLDMFEVGIPKDNLPEYTYKDVHGKARAVPLPTKLNNVPKFKSVAAGSHHSVAVAQNGIAYSWGFGETYAVGLGPFEDDTEVPTRIKNTATQDHNIILVGCGGQFSVSGGVKLSDEDAEKRADEMDD"}}, "molecular_target": "GST-Nup2p (S. cerevisiae, UniProt P32499 1-720)", "sequence (P32499 whole entry)": "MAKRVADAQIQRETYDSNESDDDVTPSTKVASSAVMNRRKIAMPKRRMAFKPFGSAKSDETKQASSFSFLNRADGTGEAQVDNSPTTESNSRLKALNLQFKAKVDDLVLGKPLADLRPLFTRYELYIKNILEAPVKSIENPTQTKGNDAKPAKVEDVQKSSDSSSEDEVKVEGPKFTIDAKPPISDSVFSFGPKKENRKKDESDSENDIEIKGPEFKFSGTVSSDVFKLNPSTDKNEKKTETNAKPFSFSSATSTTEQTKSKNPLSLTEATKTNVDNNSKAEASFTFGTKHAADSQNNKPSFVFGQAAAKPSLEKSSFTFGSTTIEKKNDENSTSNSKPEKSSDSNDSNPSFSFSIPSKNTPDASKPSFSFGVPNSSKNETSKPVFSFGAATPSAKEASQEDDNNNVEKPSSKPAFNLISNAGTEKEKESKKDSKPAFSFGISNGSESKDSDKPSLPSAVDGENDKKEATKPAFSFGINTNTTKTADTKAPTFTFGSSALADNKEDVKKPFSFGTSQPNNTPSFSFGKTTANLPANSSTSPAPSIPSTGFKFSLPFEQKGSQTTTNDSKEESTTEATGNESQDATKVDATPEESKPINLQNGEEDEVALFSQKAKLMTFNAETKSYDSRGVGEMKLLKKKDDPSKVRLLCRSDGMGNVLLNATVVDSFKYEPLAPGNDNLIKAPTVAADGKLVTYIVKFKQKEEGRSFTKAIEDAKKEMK", "test": "pull-down"}
{"binder": "B1", "values": [{"measurement": "binding result", "result": "binds"}]}
